In patent US20220332804A1 (CSL INNOVATION, published 2022):
Substitutions are numbered along the chain they refer to.

Key:
Experiment in all cases: SPR, KD relative to WT C2;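 note: biacore SPR at 37 °C, anti-C2 mAbs captured via immobilised goat anti-human IgG, C2 alanine or serine surface mutants as analytes, 1:1 model fitted, double-referenced sensograms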
human C2 A717S = biological target: T1, human C2 A717S (human, UniProt P06681 21-752)
T1 sequence: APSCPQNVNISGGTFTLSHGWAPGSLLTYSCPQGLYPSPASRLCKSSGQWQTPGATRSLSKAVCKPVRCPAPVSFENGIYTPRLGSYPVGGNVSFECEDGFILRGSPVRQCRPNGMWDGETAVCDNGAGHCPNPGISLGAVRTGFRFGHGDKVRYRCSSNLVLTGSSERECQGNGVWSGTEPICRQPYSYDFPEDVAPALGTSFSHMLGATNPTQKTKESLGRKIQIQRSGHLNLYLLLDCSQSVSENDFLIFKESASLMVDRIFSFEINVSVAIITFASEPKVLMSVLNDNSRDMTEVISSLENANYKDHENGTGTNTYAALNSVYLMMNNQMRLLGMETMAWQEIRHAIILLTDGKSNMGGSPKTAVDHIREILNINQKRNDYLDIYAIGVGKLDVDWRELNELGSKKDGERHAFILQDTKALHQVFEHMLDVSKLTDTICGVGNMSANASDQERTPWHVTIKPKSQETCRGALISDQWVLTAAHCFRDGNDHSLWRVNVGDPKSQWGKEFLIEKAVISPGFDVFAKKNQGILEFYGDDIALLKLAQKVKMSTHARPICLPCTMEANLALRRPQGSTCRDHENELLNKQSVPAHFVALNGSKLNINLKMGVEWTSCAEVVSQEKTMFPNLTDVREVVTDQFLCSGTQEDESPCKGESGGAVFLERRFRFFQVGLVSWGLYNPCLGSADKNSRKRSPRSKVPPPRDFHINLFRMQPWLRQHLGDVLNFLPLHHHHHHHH

human C2 K721A = biological target: T2, human C2 K721A (human, UniProt P06681 21-752)
T2 sequence: T1 sequence with S697A, K701A

human C2 V465A = biological target: T3, human C2 V465A (human, UniProt P06681 21-752)
T3 sequence: T1 sequence with V445A, S697A

human C2 G466A = biological target: T4, human C2 G466A (human, UniProt P06681 21-752)
T4 sequence: T1 sequence with G446A, S697A

B1: RF16-226 (antibody, human IgG4 S228P, lambda)
heavy: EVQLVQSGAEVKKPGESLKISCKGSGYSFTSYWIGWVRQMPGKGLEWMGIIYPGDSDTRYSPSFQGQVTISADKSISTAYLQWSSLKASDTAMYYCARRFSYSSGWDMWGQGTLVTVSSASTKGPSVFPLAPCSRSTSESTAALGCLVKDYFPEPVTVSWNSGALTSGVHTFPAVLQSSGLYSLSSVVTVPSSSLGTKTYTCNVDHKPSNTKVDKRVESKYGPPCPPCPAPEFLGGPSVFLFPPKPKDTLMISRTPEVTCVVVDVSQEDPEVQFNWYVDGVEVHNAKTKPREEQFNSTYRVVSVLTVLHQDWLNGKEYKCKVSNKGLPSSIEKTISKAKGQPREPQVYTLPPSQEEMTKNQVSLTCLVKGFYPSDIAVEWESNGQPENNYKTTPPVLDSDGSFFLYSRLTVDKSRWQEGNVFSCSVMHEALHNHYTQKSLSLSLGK
light: SYELTQPPSVSVSPGQTARITCSGDALTSKYVAWYQQKSGLAPLLVIYEDTRRPSGIPAKFSGSSSGSVATLTISGAHGDDEADYYCYSTDASGHQRVFGGGTKLTVLSQPKAAPSVTLFPPSSEELQANKATLVCLISDFYPGAVTVAWKADGSPVKAGVETTKPSKQSNNKYAASSYLSLTPEQWKSHRSYSCQVTHEGSTVEKTVAPTECS
notes: pH-dependent anti-C2 antibody from a phage display library; also called WT
Human C2 A717S
  Fold diff: 41 fold
Human C2 K721A
  Fold diff: 10 fold
Human C2 V465A
  Fold diff: 2 fold
Human C2 G466A
  Fold diff: 3 fold
